Test results reported in article doi:10.1101/2024.02.22.581535 (2024).

How the values were obtained:
Assay in all cases: SPR
FIKK13_4_S7A = target: FIKK13_4_S7A
FIKK13_1 = target: FIKK13_1
FIKK13_4_S7A_Y10A = target: FIKK13_4_S7A_Y10A
FIKK13_4_Y10A = target: FIKK13_4_Y10A
FIKK13_6 = target: FIKK13_6

B1: Bio-His-FIKK13 (enzyme)
chain: MKKKENTQKLLNFVYYKIYLTFIVGLLYIFLLNILINHGGSKNDVRFTNIRCVRIFSENIKNINEISKKIYLYNIKNEKDDIICRDSLDNINEINNKINYTSVKGEDIIILKEGKYKNGCSDINFLDRKDVNKNDDQSFRNYHKTNNNKDENVNMKSYVYNWELGQKSLIKMLDYADNFYFNGVKYSDWKLTSMRRFNLNNNVLKDHKTYKSIINSKKGNDMKKVKLFIKKIPIDIWVEQFNLMKKYEGEYLIDKENYVMEAVSLAFLNEYYPGITPKFYKILYESDKNNMNEKNCKKYKFQDLNELNDILTKKLENNINGNIVLISEFFGENVFDYIKRKKNTLFVVSDISNEDKKKILYNSLNLLMRLHNAGLTHLDLSPDNMLISPKNYEMRLCDLSQSTPIYTNKLRHKEKLNSIKPFESFEPCIGKIEYIPPECWKIVWKYKMNNIKNPIEYLKNISNQEERKKYYYDVSCADKYMLGIFFIWMWNNGFIWKCSDPIQDKIFEIFMKSNMDLNKFIMTKSWPHELNNLINKLLHMEHRKTVKLSDLSRHPWWSSKN
With B1 the Kd (FIKK13_4_S7A) was 3.4 µM, the Kd (FIKK13_1) was > 10 µM and the Kd (FIKK13_4_S7A_Y10A) was > 10 µM. For the same binder, the Kd (FIKK13_4_Y10A) was > 10 µM and the Kd (FIKK13_6) was > 10 µM.
